Experimental findings from article PMC10384591, “Multi-Enzymatic Cascade for Efficient Deracemization of DL-Pantolactone into D-Pantolactone” (Molecules, 2023) are described below.

In general, Km refers to the concentration of substrate that gives half-maximal velocity. A word on the Vmax: it is the top rate of the reaction or transport when substrate is in excess. As a reminder, the kcat is the maximal rate divided by the concentration of active sites. The kcat/Km is the second-order rate constant that governs catalysis at low substrate concentration.

One data set addresses T1, NasLPLDH (Nocardia asteroides, UniProt U5EKS1).
T1 construct: gene NCAST_32_01610; pET28a, codon-optimized synthetic gene, E. coli BL21(DE3)
T1 sequence (U5EKS1 1-404): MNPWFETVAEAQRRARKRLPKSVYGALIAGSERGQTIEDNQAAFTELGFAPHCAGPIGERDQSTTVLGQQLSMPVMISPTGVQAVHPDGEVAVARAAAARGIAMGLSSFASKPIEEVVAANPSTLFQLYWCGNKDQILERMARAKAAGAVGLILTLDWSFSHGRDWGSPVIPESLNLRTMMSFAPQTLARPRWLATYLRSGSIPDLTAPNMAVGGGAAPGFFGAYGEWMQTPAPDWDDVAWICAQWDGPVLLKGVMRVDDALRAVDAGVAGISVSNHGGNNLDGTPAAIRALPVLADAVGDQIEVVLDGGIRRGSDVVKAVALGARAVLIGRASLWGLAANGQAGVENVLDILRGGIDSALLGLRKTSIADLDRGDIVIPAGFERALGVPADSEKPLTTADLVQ
Kind of data set: substrate specificity, dehydrogenation by recombinant enzyme. It counts as cell-based. Particulars: recombinant E. coli BL21(DE3); FMN-dependent.

A further data set deals with T2, ZpaCPR.
T2 construct: gene CPR; pET28a, codon-optimized synthetic gene, E. coli BL21(DE3), Ni-NTA purified
Description: NADPH oxidation, absorbance […] nm, Michaelis-Menten fit. In kind it is biochemical, Zygosaccharomyces parabailii. Particulars: 0.15 mM NADPH, 200 mM PBS pH 5.5, 45 °C.

Another data set deals with T3, CduCPR (Candida dubliniensis, UniProt B9WJQ5).
T3 construct: gene CPR-C2; pACYCDuet-1, co-expressed with EsGDH in E. coli BL21(DE3) cells
T3 sequence (B9WJQ5 1-309): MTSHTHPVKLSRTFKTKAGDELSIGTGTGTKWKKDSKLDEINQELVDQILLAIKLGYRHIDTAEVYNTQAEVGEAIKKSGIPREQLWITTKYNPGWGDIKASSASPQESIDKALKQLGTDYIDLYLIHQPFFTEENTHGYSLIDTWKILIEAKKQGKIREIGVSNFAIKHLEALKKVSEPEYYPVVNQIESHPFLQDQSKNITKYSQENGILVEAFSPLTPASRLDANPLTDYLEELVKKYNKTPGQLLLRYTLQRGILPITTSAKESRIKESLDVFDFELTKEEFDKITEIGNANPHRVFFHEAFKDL
Kind of data set: whole-cell reduction to D-pantolactone. In kind it is cell-based. Particulars: E. coli cells co-expressing EsGDH.

Substrate in the data set “purified protein”: CC1(C)COC(=O)[C@H]1O
Kind of data set: purified protein. It counts as biochemical, Amycolatopsis methanolica. Particulars: 0.15 mM FMN, 200 mM PBS pH 8.0, 30 °C.

For the molecule `CC1(C)COC(=O)[C@H]1O` [L-pantolactone], the “substrate specificity, dehydrogenation by recombinant enzyme” value at NasLPLDH was “all five LPLDHs showed the capacity to catalyze the dehydrogenation of L-pantolactone but not D-pantolactone”.

As to `CC1(C)COC(=O)C1=O` [ketopantolactone], in the data set with ZpaCPR, the Km worked out at 3.65 ± 0.58 mM. In addition, the “whole-cell reduction to D-pantolactone” value on CduCPR is “used to catalyze the reduction of ketopantolactone, affording the single D-enantiomer”.

B1: AmeLPLDH (Amycolatopsis methanolica 239) (protein)
chain: MSNGWFETVAEAQRRARKRLPKSVYGALVAGSERGITVDDNIAAFAELGFAPHVAGLSDKRELGTTVMGQPISLPVVISPTGVQAVHPDGEVAVARAAAARGTAMGLSSFASKSIEEVAAANPQTFFQMYWVGSRDVLVQRMERARAAGAVGLIMTLDWSFSTGRDWGSPVIPEKLDLKAMARFAPEGITRPKWLWDFAKTRKLPDLTTPNLTPPGGTAPTFFGAYGEWMQTPLPTWEDVAWLREQWGGPFMLKGVMRVDDAKRAVDAGVTAISVSNHGGNNLDGTPAPIRALPAIADAVGGDVEVLLDGGIRRGSDVVKAIALGAKAVLIGRAYLWGLAANGQAGVENVLDILRGGIDSAVLGLGKTSIHELTRDDVVIPPGFERALGVPKS
notes: pET28a, codon-optimized synthetic gene, E. coli BL21(DE3), Ni-NTA purified, Brij 35 solubilised
B1: in the data set “purified protein”, the Km is 0.57 ± 0.04 mM, the Vmax is 52.5 µmol/min/mg, the kcat came out at 36.41 ± 0.29 s⁻¹ and the kcat/Km was determined as 63850 ± 510 M⁻¹ s⁻¹.
